# Target: T1, acid α-glucosidase (GAA) (Homo sapiens, UniProt P10253)
# T1 construct: purchased Genzyme, Inc. (Myozyme)
# Assay: GAA activity assay with para-nitrophenol-α-D-glucopyranoside substrate
# Assay type: biochemical
# Protocol: The activity of the encapsulated GAA, relative to the free GAA, was evaluated. It was envisioned that the enzyme would be less available to the substrate, when encapsulated, and therefore would have a lower activity. It follows then that the activity will be recovered when exposing the nanogel to lower pH, as the enzyme will be released in response to the β-thioester cleavage based decrosslinking. The enzymatic activity was measured using para-nitrophenol-α-D-glucopyranoside as substrate, the GAA-assisted cleavage of the α-1,4-linkage of which releases the chromophore p-nitrophenolate (pNP). […] Note, however, that the enzymatic activity of GAA itself at pH 7.4 is undetectable (FIG. 4a).
# To activate the GAA from the nanogel, the pH of the solution was reduced to 5.0 using acetate buffer. […] To calibrate the percentage of activity that was recovered after 48 hours of incubation at pH 5.0, the enzymatic activity of the GAA from the nanogel was compared with that of the free enzyme at the same concentration. […]
# GAA activity was measured using para-nitrophenol-α-D-glucopyranoside as a substrate in 100 mM Citrate/100 mM Sodium Phosphate buffer at pH 5.0. […] Presence of the product formation (para-nitrophenolate) was then measured by absorbance of 400 nm light on a Molecular Devices Spectra Max M5 at 25° C. […]
substance,measurement,value
acid α-glucosidase [GAA],enzymatic activity at pH 7.4,undetectable

# — patent publication US10617652B2, “Polymers and polymeric nanogels with hydrophilics encapsulation and release capabilities and methods thereof” (University of Massachusetts, priority 2014, dated 2020)
